# Data: PMC8699718, “A structurally conserved site in AUP1 binds the E2 enzyme UBE2G2 and is essential for ER-associated degradation” (PLoS Biology, 2021)
# B1: UBE2G2: ERAD ubiquitin-conjugating enzyme (E2); purified in vitro, N-terminally MYC-tagged in cells (protein)
# chain: MAGTALKRLMAEYKQLTLNPPEGIVAGPMNEENFFEWEALIMGPEDTCFEFGVFPAILSFPLDYPLSPPKMRFTCEMFHPNIYPDGRVCISILHAPGDDPMGYESSAERWSPVQSVEKILLSVVSMLAEPNDESGANVDASKMWRDDREQFYKIAKQIVQKSLGL
# Target: T1, gp78 RING (Homo sapiens, UniProt Q9UKV5)
# T1 construct: The gp78-RING construct (aa 313 to 393) was generated by inserting a stop codon; GST (pGEX-4T-2 vector) (N); made in house
# T1 sequence (Q9UKV5 313-393, one chain of several): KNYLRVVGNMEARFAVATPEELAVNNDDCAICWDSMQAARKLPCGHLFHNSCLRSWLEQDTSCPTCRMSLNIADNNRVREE
# Assay: NMR titration (1H-15N HSQC CSP) of 15N-UBE2G2 with or without G2BR with gp78 RING
# Assay type: binding
# Details: overall value; 15N-UBE2G2 150 μM, gp78 RING 0-450 μM, 50 mM Tris-Cl pH 7.0, 0.5 mM TCEP, 100 μM zinc sulfate, 0.05% sodium azide; G2BR 1:1.1 where present; read-out: affinity for gp78 RING (Kd) by NMR CSP
# Description: Fig 5 Titration of UBE2G2:G2BR with gp78 RING. Superposition of ^15N-^1H^N HSQC NMR spectra for apo-UBE2G2 and UBE2G2 bound to G2BR^AUP1 (A) or G2BR^gp78 (B). Spectra for UBE2G2 (150 μM) bound to G2BR were acquired at a 1:1.1 ratio. (C) Superposition of the spectra for apo-UBE2G2, UBE2G2:G2BR^AUP1, and UBE2G2:G2BR^gp78, illustrating the equivalence of perturbations between G2BR^AUP1 and G2BR^gp78. (D) Expansion of overlaid resonances corresponding to UBE2G2 residues showing fast exchange binding kinetics for gp78 RING binding to both UBE2G2:G2BR^AUP1 (left panels) and UBE2G2:G2BR^gp78 (right panels). Spectra were acquired at ratios of RING to UBE2G2:G2BR of 0, 0.33, 0.67, 1.0, 2.0, and 3.0. […]
# UBE2G2 and gp78 RING used in titration experiments were expressed and purified as previously described. […] The changes in chemical shift for each peak in the 2D spectrum upon gp78 RING binding was calculated using the following CSP equation: ΔCSP=(ΔδN/5)^2+(ΔδH)^2/2 (1)
# The CSPs calculated from Eq 1 were plotted versus the molar ratio of gp78 RING to UBE2G2:G2BR, and the data were fit using the following equation to calculate the dissociation constant (Kd), where x is the ligand-to-protein ratio: ΔCSP=ΔCSPmax/2*1+x+Kd/P−(1+x+Kd)^2/P−4x (2)
molecule,measurement,value
B1,Kd,207 ± 6.4 µM
